Test results: PMC3766450 (Nature structural & molecular biology, 2013)

The binders below were run against vertebrate calmodulin (CaM) (UniProt P0DP23) (assay: ITC).

Row | Binder | stoichiometry N
1 | LFPRAKSVSERLSILKGSRP [AQP0^CBD peptide L227A] | 1 peptide per CaM
2 | LFPRLKSVSERLSIAKGSRP [AQP0^CBD peptide L237A] | 2 peptides per CaM
3 | LFPRLKSASERLSILKGSRP [AQP0^CBD peptide V230A] | 1 peptide per CaM
4 | LFPRLKSVSERASILKGSRP [AQP0^CBD peptide L234A] | 2 peptides per CaM
